Measurements published in patent publication US20250042968A1 (UNIVERSITY OF MIAMI, published 2025).

Target: T1, EphA2 (UniProt P29317 25-534, limits assumed)
T1 construct: also called EphA2 receptor
Assay: biolayer interferometry (ForteBio Octet)

T1 sequence (P29317 25-534 limits assumed): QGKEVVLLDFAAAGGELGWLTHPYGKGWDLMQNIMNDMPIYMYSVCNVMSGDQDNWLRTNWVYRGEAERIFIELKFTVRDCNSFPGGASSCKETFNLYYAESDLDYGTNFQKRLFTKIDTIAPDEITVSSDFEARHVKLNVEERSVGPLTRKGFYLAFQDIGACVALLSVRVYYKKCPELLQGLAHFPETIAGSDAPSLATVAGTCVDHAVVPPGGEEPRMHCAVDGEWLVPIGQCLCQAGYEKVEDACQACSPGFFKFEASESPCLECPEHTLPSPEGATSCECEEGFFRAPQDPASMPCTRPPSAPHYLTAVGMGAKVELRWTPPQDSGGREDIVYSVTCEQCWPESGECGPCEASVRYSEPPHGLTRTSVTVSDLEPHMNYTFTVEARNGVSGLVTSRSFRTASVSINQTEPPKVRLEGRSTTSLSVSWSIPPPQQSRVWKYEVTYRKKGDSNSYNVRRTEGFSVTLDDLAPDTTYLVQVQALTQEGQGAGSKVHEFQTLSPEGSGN

binding result: no binding
B1: SNEW (peptide)
peptide: SNEWIQPRLPQH
notes: Known EphB2 targeting peptide, tested alongside the xEFN peptides as a comparator
